The values below come from publication PMC3711744 (The Journal of neuroscience : the official journal of the …, 2013).

Common to all, as to test: pull-down
Assay [1] addresses T1, His-tagged CaMKIIα-FL(M1-H478) (UniProt P11275 1-478).
The target in assay [2] is T286-autophosphorylated CaMKIIα (UniProt P11275 1-478, phosphothreonine at 286 (autophosphorylation)).
Assay [3] has as its target T1, His-tagged CaMKIIα-FL(M1-H478). The source holds these as a separate data set.
The next assay addresses GST-CaMKIIα-FL(M1-H478) (UniProt P11275 1-478).

Like-named read-outs stand apart in the source and are kept apart here.

T1 sequence (P11275 whole entry): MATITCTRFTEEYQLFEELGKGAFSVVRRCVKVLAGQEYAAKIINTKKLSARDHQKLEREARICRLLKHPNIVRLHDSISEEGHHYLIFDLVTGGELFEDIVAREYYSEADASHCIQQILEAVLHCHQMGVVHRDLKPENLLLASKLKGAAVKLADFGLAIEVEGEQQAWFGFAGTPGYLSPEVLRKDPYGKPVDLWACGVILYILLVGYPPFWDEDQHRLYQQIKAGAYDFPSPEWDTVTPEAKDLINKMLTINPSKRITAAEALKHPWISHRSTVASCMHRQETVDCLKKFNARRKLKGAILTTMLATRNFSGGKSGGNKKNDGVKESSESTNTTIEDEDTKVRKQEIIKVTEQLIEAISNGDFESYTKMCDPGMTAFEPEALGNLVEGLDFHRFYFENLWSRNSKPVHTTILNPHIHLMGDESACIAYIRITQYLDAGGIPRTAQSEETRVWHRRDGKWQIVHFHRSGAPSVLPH
Chain of T286-autophosphorylated CaMKIIα (P11275 whole entry): as above
Chain of GST-CaMKIIα-FL(M1-H478) (P11275 whole entry): as above

B1: GST-mGluR1a-CT1(K841-T1000) (domain or fragment, rat, UniProt P23385 841-1000, looked up)
chain: KPERNVRSAFTTSDVVRMHVGDGKLPCRSNTFLNIFRRKKPGAGNANSNGKSVSWSEPGGRQAPKGQHVWQRLSVHVKTNETACNQTAVIKPLTKSYQGSGKSLTFSDASTKTLYNVEEEDNTPSAHFSPPSSPSMVVHRRGPPVATTPPLPPHLTAEET
As to B1, the binding result in assay [1] and in assay [2] was “binds” throughout.
Take KPERNVRSAFTTSDVVRMHVGDGKLPCRSNTFLNIFRRKKPGAGN (domain or fragment, rat, UniProt P23385 841-885, looked up) [GST-mGluR1a-CT1a(K841-N885)]: the binding result in assay [3] is recorded as “binds”.
As to KLPCRSNTFLNIFR [mGluR1a-i (14-amino acid interfering peptide)], the binding result in assay [1] was “binds”.

B2: GST-mGluR1a-CT-FL(K841-L1199) (domain or fragment, rat, UniProt P23385 841-1199, looked up)
chain: KPERNVRSAFTTSDVVRMHVGDGKLPCRSNTFLNIFRRKKPGAGNANSNGKSVSWSEPGGRQAPKGQHVWQRLSVHVKTNETACNQTAVIKPLTKSYQGSGKSLTFSDASTKTLYNVEEEDNTPSAHFSPPSSPSMVVHRRGPPVATTPPLPPHLTAEETPLFLADSVIPKGLPPPLPQQQPQQPPPQQPPQQPKSLMDQLQGVVTNFGSGIPDFHAVLAGPGTPGNSLRSLYPPPPPPQHLQMLPLHLSTFQEESISPPGEDIDDDSERFKLLQEFVYEREGNTEEDELEEEEDLPTASKLTPEDSPALTPPSPFRDSVASGSSVPSSPVSESVLCTPPNVTYASVILRDYKQSSSTL
In the case of B2, the binding result in assay [3] is listed as “binds”.

B3: purified mGluR1a-CT (domain or fragment, rat, UniProt P23385 841-1199, looked up)
chain: B2 chain
On to B3, for which, in the assay with GST-CaMKIIα-FL(M1-H478), the binding result is “binds”.
